This note sets out measurements from publication PMC8591511, “Flexible open conformation of the AP-3 complex explains its role in cargo recruitment at the Golgi” (The Journal of Biological Chemistry, 2021).

B1: Apl6 (β3-subunit of yeast AP-3) (natural protein, S. cerevisiae, UniProt P46682 1-809, looked up)
chain: MVDSIHRIASALDTAKVITREAAAVATSKLGESSYTYYSQNINPQQLVTLLNSRNSREVRDAMKRIISIMASDDDSIDVQLYFADVVKNITTNDTKVKRLIHLYLLRFAENDPNLTLLSINSLQKSLSDSNSELRCFALSALSDMKMSSLAPIILHTVKKLVTDPSAMVRGEVALAIIKLYRAGKNDYHEELLDILKELMADTDPKVISCAVLAYKECYADHLELLHGHFRRYCRIIKQLDSWSQSYLIELLIKYCKQYLPKPTVVDKSSEGSPRSCPLPDKYNEIEYPSYEVVNDPDLDLFLQSLNCLIYSSNPTVILSCCNALYQLASPLQMKNTKFIEALVRTVTMTENQGNKEMLLQAIHFLSILDQTLFLPYTKKFYVFPKDPIVASIWKIQILSTLINESNVKEIFKELKYYVASAHFPENVVIMAVKSLSRCGQLSTSWESHVMKWLIDHMESHNLSASVLDAYVNVIRMLVQKNPTKHLRIIFKLADLLTVQTSLADNARAGIVWLFGEIASIEFKICPDVLRRLIQNFSNEGPETRCQILVLSAKLLSYDIDNFKQAQVTGSEENNQNPPYYDFSGSRISQMYNAVLYLAKYDDEFDIRDRARMISSLFDSGKYEIVSLLLQAPKPTARSDDFIVSARLETHTPEIKEFFRMLPWNTEITEVGETGNDIREGAELKDYNKYKKSFSSQSFITNNSARSFTSSSNAKLTGINDGDSNSISGKGNVNTFTSQNGKKYRLQSLDEFFSDIPERKSKPRKIIKVVEESSDEDEDESEESSDDDEYSDSSLGTSSSGTSSSHLEL
notes: Apl6, β3-subunit of the yeast AP-3 complex; ear domain aa 631–809

The target in assay [1] is GST-Chs3(aa1-38)-Vam3(TMD) (not stated | yeast) (UniProt P29465). Kind of assay: liposome flotation assay; proteoliposomes (Golgi-mimicking lipid mix) carrying a total of 1 μM cargo, incubated with purified AP-1 or AP-3 complex, floated on a sucrose step gradient; top fraction TCA-precipitated, SDS-PAGE, band of Apl4 or Apl5 quantified as percent of load; in Fig. 6E without PIPs or Arf1, in Fig. 6D also with Arf1 and PI3P or PI4P; 150 mM NaCl, 20 mM HEPES/NaOH pH 7.4, 1 mM MgCl2, 10 % glycerol, 60 min 4 °C.
Sequence of GST-Chs3(aa1-38)-Vam3(TMD) (not stated | yeast) (P29465 other isoform, or with tags, fused parts or gaps): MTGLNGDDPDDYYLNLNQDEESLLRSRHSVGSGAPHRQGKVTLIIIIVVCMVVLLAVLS

Assay [2] has as its target Vam3 (yeast vacuolar SNARE, AP-3 cargo with dileucine motif) (yeast) (UniProt Q12241). The description is as above.
Assay [3] has as its target N-myristoylated Arf1, loaded with GTP or GTPγS by Sec7ΔC (UniProt P11076). Kind of assay: liposome flotation assay; empty liposomes (Golgi-mimicking lipid mix, with or without PI3P or PI4P) incubated with increasing Arf1, Sec7 GEF and GTP, then purified AP-1 or AP-3 complex; floated on a sucrose step gradient; band of Apl4 or Apl5 in the top fraction quantified.
The target in assay [4] is T1, Apl5 (δ-subunit of yeast AP-3) with C-terminal 3xFLAG-tag (S. cerevisiae, UniProt Q08951 1-932).
T1 construct: Apl5, δ-subunit of the yeast AP-3 complex; ear domain aa 639–932; also called δ-adaptin; not shown: 3xFLAG, C-terminal, kept
T1 sequence (looked up): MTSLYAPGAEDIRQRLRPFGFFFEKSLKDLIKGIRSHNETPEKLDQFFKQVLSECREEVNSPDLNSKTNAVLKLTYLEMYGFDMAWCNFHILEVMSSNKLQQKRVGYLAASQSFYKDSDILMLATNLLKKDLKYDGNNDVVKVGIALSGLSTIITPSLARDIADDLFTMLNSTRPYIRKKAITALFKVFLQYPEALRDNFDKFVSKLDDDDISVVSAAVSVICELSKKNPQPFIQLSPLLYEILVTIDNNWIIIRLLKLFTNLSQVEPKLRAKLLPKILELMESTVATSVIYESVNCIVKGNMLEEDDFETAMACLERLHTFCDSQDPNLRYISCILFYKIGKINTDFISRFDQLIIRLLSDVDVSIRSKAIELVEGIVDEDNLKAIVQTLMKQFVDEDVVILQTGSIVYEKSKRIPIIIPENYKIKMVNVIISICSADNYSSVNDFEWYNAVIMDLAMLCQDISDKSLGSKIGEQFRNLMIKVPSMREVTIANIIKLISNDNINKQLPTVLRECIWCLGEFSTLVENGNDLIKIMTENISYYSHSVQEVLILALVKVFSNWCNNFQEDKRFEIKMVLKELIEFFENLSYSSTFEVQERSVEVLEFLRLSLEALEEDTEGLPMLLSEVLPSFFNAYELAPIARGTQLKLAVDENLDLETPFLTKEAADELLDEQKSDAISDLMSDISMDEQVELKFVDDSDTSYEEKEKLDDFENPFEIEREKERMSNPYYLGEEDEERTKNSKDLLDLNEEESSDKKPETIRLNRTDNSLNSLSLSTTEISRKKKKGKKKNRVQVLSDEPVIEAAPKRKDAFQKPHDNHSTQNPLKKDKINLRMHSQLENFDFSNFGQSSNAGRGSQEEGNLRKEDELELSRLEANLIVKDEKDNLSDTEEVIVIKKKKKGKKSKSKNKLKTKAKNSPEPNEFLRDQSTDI
Kind of assay: pull-down + SEC; subunits overproduced together in yeast; captured from cleared lysate on anti-FLAG M2 affinity gel via the C-terminal 3xFLAG-tag on Apl5 (AP-3) or Apl4 (AP-1), eluted with FLAG-peptide, run on Superose 6 Increase; 150 mM NaCl, 20 mM HEPES/NaOH pH 7.4, 1.5 mM MgCl2; Coomassie staining after SDS-PAGE. Particulars: partners not purified.

Assay [5] has as its target T2, full-length yeast AP-3 complex (S. cerevisiae, UniProt Q08951 1-932; P46682 1-809; P38153 1-483; P47064 1-194).
T2 construct: Apl5, δ-subunit of the yeast AP-3 complex; ear domain aa 639–932; Apl6, β3-subunit of the yeast AP-3 complex; ear domain aa 631–809; Apm3, μ3-subunit of the yeast AP-3 complex; Aps3, σ-subunit of the yeast AP-3 complex; Heterotetramer with apparent equimolar stoichiometry, about 300 kDa; also called adapter protein complex 3; copies: + + +
Kind of assay: liposome flotation assay; proteoliposomes (Golgi-mimicking lipid mix) carrying a total of 1 μM cargo, incubated with purified AP-1 or AP-3 complex, floated on a sucrose step gradient; top fraction TCA-precipitated, SDS-PAGE, band of Apl4 or Apl5 quantified as percent of load; in Fig. 6E without PIPs or Arf1, in Fig. 6D also with Arf1 and PI3P or PI4P; 150 mM NaCl, 20 mM HEPES/NaOH pH 7.4, 1 mM MgCl2, 10 % glycerol, …. Particulars: both partners purified.

The target of assay [6] is B1. Kind of assay: cross-linking; 200 μg of purified AP-3 complex, DSSO 0.5 mM added twice, 20 min each at room temperature, quenched with Tris; trypsin, SCX, LC/MS (XlinkX, 1% FDR). Particulars: both partners purified.
In assay [7] the target is T1, Apl5 (δ-subunit of yeast AP-3) with …. The description is as above. Particulars: both partners purified.

Sequence of N-myristoylated Arf1, loaded with GTP or GTPγS by Sec7ΔC (P11076 whole entry, stated change not applied): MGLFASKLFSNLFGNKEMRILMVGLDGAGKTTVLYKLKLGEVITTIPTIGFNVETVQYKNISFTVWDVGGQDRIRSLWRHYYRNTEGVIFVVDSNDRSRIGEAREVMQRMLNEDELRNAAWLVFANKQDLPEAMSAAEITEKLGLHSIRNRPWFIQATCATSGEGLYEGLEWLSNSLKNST
Sequence of Vam3 (yeast vacuolar SNARE, AP-3 cargo with dileucine motif) (yeast) (Q12241 whole entry): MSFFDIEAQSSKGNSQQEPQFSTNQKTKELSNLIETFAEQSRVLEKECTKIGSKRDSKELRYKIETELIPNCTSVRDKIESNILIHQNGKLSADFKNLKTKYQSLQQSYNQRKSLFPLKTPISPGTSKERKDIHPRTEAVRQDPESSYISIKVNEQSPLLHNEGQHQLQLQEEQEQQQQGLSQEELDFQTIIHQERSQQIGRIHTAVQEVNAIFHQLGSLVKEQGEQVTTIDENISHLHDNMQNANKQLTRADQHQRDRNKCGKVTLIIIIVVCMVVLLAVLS

Molecule “full-length yeast AP-3 complex, Q08951 1-932; P46682 1-809; P38153 1-483; P47064 1-194” registered a percent of AP-3 recruited to proteoliposomes (without PIPs or Arf1) in assay [1] of 25%. In addition, in assay [2], the percent of AP-3 recruited to proteoliposomes (Vam3 alone) is above 25%; the percent of AP-3 recruited to proteoliposomes (Vam3 with low amounts of Arf1 and PIPs) was determined as 50%; the percent of AP-3 recruited to proteoliposomes (without PIPs or Arf1) was 25%.

With “full-length yeast AP-1 complex (from UniProt Q12028 1-832)”, in assay [3], the fold increase in membrane-bound AP-1 with both Arf1-GTP and PI3P or PI4P is 2 to 3 fold; the percent of the complex bound to liposomes with Arf1-GTP (no PIPs) turned out to be 10%.

For the molecule B1, the binding result in assay [4] is reported as “binds”.

B2: Nyv1 (yeast SNARE, AP-3 cargo with Yxxφ motif) (natural protein, UniProt Q12255 1-253, looked up)
chain: MKRFNVSYVEVIKNGETISSCFQPFQKNENYGTITSANEQITPVIFHNLIMDMVLPKVVPIKGNKVTKMSMNLIDGFDCFYSTDDHDPKTVYVCFTLVDMPKILPIRILSGLQEYESNATNELLSSHVGQILDSFHEELVEYRNQTLNSSGNGQSSNGNGQNTISDIGDATEDQIKDVIQIMNDNIDKFLERQERVSLLVDKTSQLNSSSNKFRRKAVNIKEIMWWQKVKNITLLTFTIILFVSAAFMFFYLW
notes: Nyv1, yeast SNARE; source: reconstituted into proteoliposomes
In the case of B2, the binding result in assay [5] is listed as “binds”.

B3: Aps3 (σ-subunit of yeast AP-3) (natural protein, S. cerevisiae, UniProt P47064 1-194, looked up)
chain: MIHAVLIFNKKCQPRLVKFYTPVDLPKQKLLLEQVYELISQRNSDFQSSFLVTPPSLLLSNENNNDEVNNEDIQIIYKNYATLYFTFIVDDQESELAILDLIQTFVESLDRCFTEVNELDLIFNWQTLESVLEEIVQGGMVIETNVNRIVASVDELNKAAESTDSKIGRLTSTGFGSALQAFAQGGFAQWATGQ
notes: Aps3, σ-subunit of the yeast AP-3 complex
Regarding B3, the binding result in assay [6] and in assay [7] was “binds” in each case.

B4: Apm3 (μ3-subunit of yeast AP-3) (natural protein, S. cerevisiae, UniProt P38153 1-483, looked up)
chain: MYLSFYITDTKNKLIFQYLLGATAPSFKHLWTRVQSTCPQLLEDSSSDDYLDHSMVGRDLEVYKYFSVINKLNYWCLASTSKSKGPLDCFTFLETIDRILLEYFDKDKLSIKKIVNNYDRISLIFNCCVEAGEPNVSDMLYVNKIKEAVPERSDLSKFISSTAHNLQQAVQLPQQRQQQLQQNQISRGSNSLIENEEIVPWRTSRASKHENNELYVDLLETFHVVFEKKKSHLRLLTGSIHGIVDVRSYLNDNPLVAVKLNTMGNDIGIPSLHDCVEINDGVFSPSNITFIPPDGKFRLLEYSVDLSSQVKQSGVRMNSIGLMSLHFQNGLGKDSDEFELSLNIENFKKVSQVDDLKIDLQFNVENADPNEIAYKIKILRNTHGRFENSIIMGQGQWIFDKSTATGTVPVLRGCIEYENTGPNFTKKVDLQTVSLEYSYIGQSASGIYVEAIDIVSGLTIGKNTKLYKGAKYKTQTGNFQVRL
notes: Apm3, μ3-subunit of the yeast AP-3 complex; N-terminal domain aa 1–138, linker aa 139–211
As for B4, the binding result in assay [6] and in assay [4] was “binds” throughout.
